Tests used:
human IL-17A [1] = target: T1, human IL-17A (human, UniProt Q16552 24-155); test: hIL17A ELISA
T1 construct: Recombinant; biotinylated in the ELISA; also called hIL-17; hIL17A
T1 sequence (Q16552 24-155): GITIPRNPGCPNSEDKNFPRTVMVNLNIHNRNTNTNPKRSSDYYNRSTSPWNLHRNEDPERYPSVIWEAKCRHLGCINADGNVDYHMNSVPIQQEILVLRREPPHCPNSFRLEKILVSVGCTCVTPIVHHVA

human IL-17A [2] = target: T2, human IL-17A (human, UniProt Q16552 24-155); test: SPR Biacore, captured binder
T2 construct: Purified recombinant; biotinylated in the ELISA; also called HuIL-17A; Hu IL-17A
T2 sequence (Q16552 24-155 limits assumed): as the sequence (Q16552 24-155) above
Description: (§1) The binding of antibodies to purified recombinant human, cyno, rat, mouse, rabbit IL-17 and human IL-17A/F were determined by surface plasmon resonance-based measurements with a Biacore® 3000 instrument (Biacore® AB, Uppsala, Sweden) using running HBS-EP (10 mM HEPES [pH 7.4], 150 mM NaCl, 3 mM EDTA, and 0.005% surfactant P20) at 25° C. […] Approximately 5000 RU of goat anti-mouse or anti-human IgG (Fcγ) fragment specific polyclonal antibody (Pierce Biotechnology Inc, Rockford, Ill.) diluted in 10 mM sodium acetate (pH 4.5) was directly immobilized across a CM5 research grade biosensor chip using a standard amine coupling kit according to manufacturer's instructions and procedures at 25 μg/ml. Unreacted moieties on the biosensor surface were blocked with ethanolamine. Modified carboxymethyl dextran surface in flowcell 2 and 4 was used as a reaction surface. Unmodified carboxymethyl dextran without goat anti-mouse or anti-human IgG in flow cell 1 and 3 was used as the reference surface. For kinetic analysis, rate equations derived from the 1:1 Langmuir binding model were fitted simultaneously to association and dissociation phases of all eight injections (using global fit analysis) with the use of Biaevaluation 4.0.1 software. Purified antibodies were diluted in HEPES-buffered saline for capture across goat anti-mouse or anti-human IgG specific reaction surfaces. Antibodies to be captured as a ligand (25 μg/ml) were injected over reaction matrices at a flow rate of 5 μl/min. The association and dissociation rate constants, kon (unit M-1s-1) and koff (unit s-1) were determined under a continuous flow rate of 25 μl/min. Rate constants were derived by making kinetic binding measurements at ten different antigen concentrations ranging from 10 nM to 200 nM. The equilibrium dissociation constant (unit M) of the reaction between antibodies and recombinant purified IL-17 antigens was then calculated from the kinetic rate constants by the following formula: KD=koff/kon. Binding was recorded as a function of time and kinetic rate constants are calculated. In this assay, on-rates as fast as 10⁶ M⁻¹ s⁻¹ and off-rates as slow as 10⁻⁶ s⁻¹ can be measured.

human IL-17A/F = target: T3, human IL-17A/F (human, UniProt Q16552 24-155; Q96PD4 31-163); test: SPR Biacore, captured binder
T3 construct: Heterodimer of IL-17A and IL-17F, purified recombinant; also called HuIL-17A/F; Hu IL-17A/F
T3 sequence (Q16552 24-155 limits assumed, chain 1 of 2): as the sequence (Q16552 24-155) above
T3 sequence (Q96PD4 31-163 limits assumed, chain 2 of 2): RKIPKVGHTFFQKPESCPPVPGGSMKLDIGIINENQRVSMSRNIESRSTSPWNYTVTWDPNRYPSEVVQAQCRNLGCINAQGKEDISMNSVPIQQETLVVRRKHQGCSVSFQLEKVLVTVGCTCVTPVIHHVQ
Description: as §1

cyno IL-17A = cyno IL-17A (cynomolgus monkey, UniProt A0A2K5TTB0 24-155); test: SPR Biacore, captured binder
Sequence of cyno IL-17A (A0A2K5TTB0 entry or part of it): as the sequence (Q16552 24-155) above, with T3A, P8S, N34S, I77V, N78K, P104R counted along it
Description: as §1

Row | Binder | EC50 (human IL-17A [1]) [nM] | other results
1 | IL17-h10F7.5 (antibody, V domains shown, IgG; constant regions not specified) VH: EVQLVQSGAEVKKPGSSVKVSCKASGYTFTDYEIHWVRQAPGQGLEWMGVNDPESGGTFYNQKFDGRVTITADKSTSTAYMELSSLRSEDTAVYYCARYYRYESFYGMDYWGQGTTVTVSS VL: DIQLTQSPSSLSASVGDRVTITCSASSSISYIYWFQQKPGKSPKRWIYATFELASGVPSRFSGSGSGTDYTLTISSLQPEDFATYYCHQRSSYPWTFGQGTKLEIKR | 0.06 | 
2 | IL17-h10F7.10 (antibody, V domains shown, IgG; constant regions not specified) VH: EVQLVQSGAEVKKPGSSVKVSCKASGYTFTDYEIHWVRQAPGQGLEWMGVNDPESGGTFYNQKFDGRVTITADKSTSTAYMELSSLRSEDTAVYYCARYYRYESFYGMDYWGQGTTVTVSS VL: EIVLTQSPDFQSVTPKEKVTITCSASSSISYIYWFQQKPDQSPKRWIYATFELASGVPSRFSGSGSGTDYTLTINSLEAEDAATYYCHQRSSYPWTFGQGTKLEIKR | 0.04 | 
3 | IL17-TN-L7-G9 (antibody, V domains shown, Fully human antibody) VH: EVQLLESGGGVVQPGRSLRLSCAASGFIFSNYGMHWVRQAPGKGLEWVAVISYDGSNKYYADSVKGRFTISRDNSKNTLYLEMNSLRPEDTAVYYCAKVGASGDYYYSYGLDVWGQGTTVTVSS VL: QSGLTQPPSASGTPGQTVSISCSGSNSNIGSHSVNWYQQVPGAAPKLLMYGIGQRPSGVPDRFSVSQSGTSASLAISGLQSEDEADYYCATWDDSLGGYVFGSGTKVTVLG |  | Kd (human IL-17A [2]): 0.28 nM; koff (human IL-17A [2]): 8.65e-05 s⁻¹; kon (human IL-17A [2]): 309000 M⁻¹ s⁻¹; Kd (human IL-17A/F): 0.907 nM; koff (human IL-17A/F): 9.7e-05 s⁻¹; kon (human IL-17A/F): 107000 M⁻¹ s⁻¹; Kd (cyno IL-17A): 2.07 nM; koff (cyno IL-17A): 0.000199 s⁻¹; kon (cyno IL-17A): 96000 M⁻¹ s⁻¹
4 | IL17-G9-1 (antibody, V domains shown) VH: EVQLLESGGGVVQPGRSLRLSCAASGFIFSNYGMHWVRQAPGKGLEWVAVISYDGSNKYYADSVKGRFTISRDNSKNTLYLEMNSLRPEDTAVYYCAKVGASGDYYYSYGLDVWGQGTTVTVSS VL: QSVLTQPPSASGTPGQTVSISCSGSHSNIGRHPVDWYQQVPGAAPKLLMYYGGYRPSGVPDRFSGSQSGTSASLAISGLQSEDEADYYCATWDDRLVGYVFGSGTKVTVLG |  | Kd (human IL-17A [2]): 0.0257 nM; koff (human IL-17A [2]): 1.05e-05 s⁻¹; kon (human IL-17A [2]): 408000 M⁻¹ s⁻¹; Kd (human IL-17A/F): 0.00313 nM; koff (human IL-17A/F): 1e-06 s⁻¹; kon (human IL-17A/F): 320000 M⁻¹ s⁻¹; Kd (cyno IL-17A): 0.00296 nM; koff (cyno IL-17A): 1e-06 s⁻¹; kon (cyno IL-17A): 338000 M⁻¹ s⁻¹
5 | IL17-h5C5.12 (antibody, V domains shown, IgG; constant regions not specified) VH: EVQLVQSGAEVKKPGASVKVSCKASGYTFTDYEFHWVRQAPGQGLEWIGVIHPGNGGTAYNQNFRDRATLTADKSTSTAYMELSSLRSEDTAVYYCTRFLTYEGYFDYWGQGTLVTVSS VL: EIVMTQSPATLSVSPGERATLSCKASQSVSIDVGWYQQKPGQAPRLLIYHASNRYTGIPARFSGSGSGTDFTLTISSLQPEDFAVYYCQQDYSSPYTFGQGTKLEIKR | 0.23 | 
6 | IL17-h5C5.13 (antibody, V domains shown, IgG; constant regions not specified) VH: QVQLQQSGAELVRPGASVKLSCKALGYTFTDYEFHWVKQTPVHGLEWIGVIHPGNGGTAYNQNFRDKATLTADKSSSTAYMELSSLTSEDSGVYYCTRFLTYEGYFDYWGQGTALTVSS VL: EIVMTQSPATLSVSPGERATLSCKASQSVSIDVGWFQQKPGQSPRLLIYHASNRYTGVPARFSGSGSGTDFTLTISSLQPEDFAVYFCQQDYSSPYTFGQGTKLEIKR | 0.03 | 
7 | IL17-h5C5.5 (antibody, V domains shown, IgG; constant regions not specified) VH: EVQLVQSGAEVKKPGASVKVSCKASGYTFTDYEFHWVRQAPGQGLEWMGVIHPGNGGTAYNQNFRDRVTITADKSTSTAYMELSSLRSEDTAVYYCARFLTYEGYFDYWGQGTLVTVSS VL: DIQMTQSPSSLSASVGDRVTITCKASQSVSIDVGWYQQKPGKAPKLLIYHASNRYTGVPSRFSGSGSGTDFTFTISSLQPEDFATYYCQQDYSSPYTFGQGTKLEIKR | 0.05 | 
8 | IL17-h5C5.6 (antibody, V domains shown, IgG; constant regions not specified) VH: EVQLVQSGAEVKKPGASVKVSCKASGYTFTDYEFHWVRQAPGQGLEWIGVIHPGNGGTAYNQNFRDRATLTADKSTSTAYMELSSLRSEDTAVYYCTRFLTYEGYFDYWGQGTLVTVSS VL: DIQMTQSPSSLSASVGDRVTITCKASQSVSIDVGWYQQKPGKAPKLLIYHASNRYTGVPSRFSGSGSGTDFTFTISSLQPEDFATYYCQQDYSSPYTFGQGTKLEIKR | 0.11 | 
9 | IL17-h5C5.10 (antibody, V domains shown, IgG; constant regions not specified) VH: QVQLQQSGAELVRPGASVKLSCKALGYTFTDYEFHWVKQTPVHGLEWIGVIHPGNGGTAYNQNFRDKATLTADKSSSTAYMELSSLTSEDSGVYYCTRFLTYEGYFDYWGQGTALTVSS VL: EIVMTQSPATLSVSPGERATLSCKASQSVSIDVGWYQQKPGQAPRLLIYHASNRYTGIPARFSGSGSGTDFTLTISSLQPEDFAVYYCQQDYSSPYTFGQGTKLEIKR | 0.05 | 
10 | IL17-h5C5.1 (antibody, V domains shown, IgG; constant regions not specified) VH: QVQLQQSGAELVRPGASVKLSCKALGYTFTDYEFHWVKQTPVHGLEWIGVIHPGNGGTAYNQNFRDKATLTADKSSSTAYMELSSLTSEDSGVYYCTRFLTYEGYFDYWGQGTALTVSS VL: NIVMTQTPKFLLVSPGDRVTITCKASQSVSIDVGWFQQKPGQSPKLLIYHASNRYTGVPDRFTGSGYGTDFTFTVNTVQAEDLAVYFCQQDYSSPYTFGGGTKLELKR | 1 | 
11 | IL17-h5C5.7 (antibody, V domains shown, IgG; constant regions not specified) VH: QVQLQQSGAELVRPGASVKLSCKALGYTFTDYEFHWVKQTPVHGLEWIGVIHPGNGGTAYNQNFRDKATLTADKSSSTAYMELSSLTSEDSGVYYCTRFLTYEGYFDYWGQGTALTVSS VL: DIQMTQSPSSLSASVGDRVTITCKASQSVSIDVGWFQQKPGKSPKLLIYHASNRYTGVPSRFSGSGSGTDFTFTISSLQPEDFATYFCQQDYSSPYTFGQGTKLEIKR | 0.03 | 
12 | IL17-h5C5.16 (antibody, V domains shown, IgG; constant regions not specified) VH: QVQLQQSGAELVRPGASVKLSCKALGYTFTDYEFHWVKQTPVHGLEWIGVIHPGNGGTAYNQNFRDKATLTADKSSSTAYMELSSLTSEDSGVYYCTRFLTYEGYFDYWGQGTALTVSS VL: NIVMTQSPSSLSASVGDRVTITCKASQSVSIDVGWFQQKPGKSPKLLIYHASNRYTGVPSRFSGSGSGTDFTFTISSLQPEDFATYFCQQDYSSPYTFGQGTKLEIKR | 0.02 | 

Further lines, with some results ahead:

Row | EC50 (human IL-17A [1]) [nM] | Binder | other results
13 | 1.7 | IL17-h10F7.1 (antibody, V domains shown, Cloned into IgG expression vectors; constant regions not specified) VH: EVQLVQSGAEVKKPGSSVKVSCKASGYTFTDYEIHWVRQAPGQGLEWIGVNDPESGGTFYNQKFDGRATLTADKSTSTAYMELSSLRSEDTAVYYCTRYYRYESFYGMDYWGQGTTVTVSS VL: QIVLTQSPAIMSASPGEKVTMTCSASSSISYIYWFQQKPGTSPKRWIYATFELASGVPARFSGSGSGTSYSLTISSMEAEDAATYYCHQRSSYPWTFGGGSKLEIKR | 
14 | 0.14 | IL17-h10F7.12 (antibody, V domains shown, IgG; constant regions not specified) VH: EVQLVQSGAEVKKPGSSVKVSCKASGYTFTDYEIHWVRQAPGQGLEWMGVNDPESGGTFYNQKFDGRVTITADKSTSTAYMELSSLRSEDTAVYYCARYYRYESFYGMDYWGQGTTVTVSS VL: QIVLTQSPSSLSASVGDRVTITCSASSSISYIYWFQQKPGKSPKRWIYATFELASGVPSRFSGSGSGTDYTLTISSLQPEDFATYYCHQRSSYPWTFGQGTKLEIKR | 
15 | 0.05 | IL17-h10F7.7 (antibody, V domains shown, IgG; constant regions not specified) VH: EVQLVQSGAEVKKPGSSVKVSCKASGYTFTDYEIHWVRQAPGQGLEWMGVNDPESGGTFYNQKFDGRVTITADKSTSTAYMELSSLRSEDTAVYYCARYYRYESFYGMDYWGQGTTVTVSS VL: EIVLTQSPDFQSVTPKEKVTITCSASSSISYIYWYQQKPDQSPKLLIKATFELASGVPSRFSGSGSGTDFTLTINSLEAEDAATYYCHQRSSYPWTFGQGTKLEIKR | 
16 | 0.13 | IL17-h10F7.14 (antibody, V domains shown, IgG; constant regions not specified) VH: EVQLVQSGAEVKKPGSSVKVSCKASGYTFTDYEIHWVRQAPGQGLEWMGVNDPESGGTFYNQKFDGRVTITADKSTSTAYMELSSLRSEDTAVYYCARYYRYESFYGMDYWGQGTTVTVSS VL: EIVLTQSPSSLSASVGDRVTITCSASSSISYIYWFQQKPGKSPKRWIYATFELASGVPSRFSGSGSGTDYTLTISSLQPEDFATYYCHQRSSYPWTFGQGTKLEIKR | 
17 | 0.05 | IL17-h10F7.3 (antibody, V domains shown, IgG; constant regions not specified) VH: EVQLVQSGAEVKKPGSSVKVSCKASGYTFTDYEIHWVRQAPGQGLEWIGVNDPESGGTFYNQKFDGRATLTADKSTSTAYMELSSLRSEDTAVYYCTRYYRYESFYGMDYWGQGTTVTVSS VL: DIQMTQSPSSLSASVGDRVTITCSASSSISYIYWYQQKPGKAPKRLIYATFELASGVPSRFSGSGSGTDFTLTISSLQPEDFATYYCHQRSSYPWTFGQGTKLEIKR | 
18 | 0.09 | IL17-h10F7.16 (antibody, V domains shown, IgG; constant regions not specified) VH: EVQLVQSGAEVKKPGSSVKVSCKASGYTFTDYEIHWVRQAPGQGLEWMGVNDPESGGTFYNQKFDGRVTITADKSTSTAYMELSSLRSEDTAVYYCARYYRYESFYGMDYWGQGTTVTVSS VL: QIVLTQSPDFQSVTPKEKVTITCSASSSISYIYWFQQKPDQSPKRWIYATFELASGVPSRFSGSGSGTDYTLTINSLEAEDAATYYCHQRSSYPWTFGQGTKLEIKR | 
19 | 3.9 | IL17-h10F7.8 (antibody, V domains shown, IgG; constant regions not specified) VH: EVQLVQSGAEVKKPGSSVKVSCKASGYTFTDYEIHWVRQAPGQGLEWIGVNDPESGGTFYNQKFDGRATLTADKSTSTAYMELSSLRSEDTAVYYCTRYYRYESFYGMDYWGQGTTVTVSS VL: EIVLTQSPDFQSVTPKEKVTITCSASSSISYIYWYQQKPDQSPKLLIKATFELASGVPSRFSGSGSGTDFTLTINSLEAEDAATYYCHQRSSYPWTFGQGTKLEIKR | 
20 | 0.03 | IL17-h5C5.17 (antibody, V domains shown, IgG; constant regions not specified) VH: EVQLVQSGAEVKKPGASVKVSCKASGYTFTDYEFHWVRQAPGQGLEWMGVIHPGNGGTAYNQNFRDRVTITADKSTSTAYMELSSLRSEDTAVYYCARFLTYEGYFDYWGQGTLVTVSS VL: NIVMTQSPSSLSASVGDRVTITCKASQSVSIDVGWFQQKPGKSPKLLIYHASNRYTGVPSRFSGSGSGTDFTFTISSLQPEDFATYFCQQDYSSPYTFGQGTKLEIKR | 

Reference: patent publication US20140348834A1 (published 2014)
